From article doi:10.1101/2023.06.15.545071 (2023)

How the values were obtained:
Assay in all cases: MST
[1] = target: T1, full-length ETR1, purified and fluorescently labelled (Arabidopsis, UniProt P49333 1-738, fluorescent label (dye and site not stated))
T1 chain: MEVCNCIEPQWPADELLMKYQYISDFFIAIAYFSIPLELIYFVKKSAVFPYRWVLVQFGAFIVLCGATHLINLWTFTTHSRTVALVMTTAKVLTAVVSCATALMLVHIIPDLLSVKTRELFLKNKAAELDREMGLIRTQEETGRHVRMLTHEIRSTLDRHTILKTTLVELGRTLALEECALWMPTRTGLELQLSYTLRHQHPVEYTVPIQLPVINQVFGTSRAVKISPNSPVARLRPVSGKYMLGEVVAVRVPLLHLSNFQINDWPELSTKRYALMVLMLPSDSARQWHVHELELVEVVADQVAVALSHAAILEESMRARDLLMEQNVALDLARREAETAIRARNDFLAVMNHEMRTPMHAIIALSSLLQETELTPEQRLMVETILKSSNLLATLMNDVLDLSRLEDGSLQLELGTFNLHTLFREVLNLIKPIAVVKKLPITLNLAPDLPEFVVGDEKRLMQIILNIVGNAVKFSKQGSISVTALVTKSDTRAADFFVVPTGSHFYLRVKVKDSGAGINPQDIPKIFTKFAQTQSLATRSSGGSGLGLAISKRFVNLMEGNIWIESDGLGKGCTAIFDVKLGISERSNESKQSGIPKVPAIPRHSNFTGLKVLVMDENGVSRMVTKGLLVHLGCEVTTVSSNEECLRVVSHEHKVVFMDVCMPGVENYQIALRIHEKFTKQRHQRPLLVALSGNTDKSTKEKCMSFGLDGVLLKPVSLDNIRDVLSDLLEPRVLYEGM

[2] = target: ETR1 1-598
[3] = target: ETR1 1-157
[4] = target: ETR1 1-407
[5] = target: ETR1 1-307

Kd [1]: 1900 nM | Kd [2]: 2920 nM | Kd [3]: 1520 nM | Kd [4]: 1650 nM | Kd [5]: 1780 nM
Binder: MKPRLCFNFRRRSISPCYISISYLLVAKLFKLFKIH [synthetic full length PLS peptide PLS(FL)]
